The values below come from US20050233313.

Sequence of β-galactosidase substrate with a cleavage cassette (decapeptide corresponding to an HIV protease cleavage site) inserted into its open reading frame [β-galactosidase: P00722] (P00722 2-1024): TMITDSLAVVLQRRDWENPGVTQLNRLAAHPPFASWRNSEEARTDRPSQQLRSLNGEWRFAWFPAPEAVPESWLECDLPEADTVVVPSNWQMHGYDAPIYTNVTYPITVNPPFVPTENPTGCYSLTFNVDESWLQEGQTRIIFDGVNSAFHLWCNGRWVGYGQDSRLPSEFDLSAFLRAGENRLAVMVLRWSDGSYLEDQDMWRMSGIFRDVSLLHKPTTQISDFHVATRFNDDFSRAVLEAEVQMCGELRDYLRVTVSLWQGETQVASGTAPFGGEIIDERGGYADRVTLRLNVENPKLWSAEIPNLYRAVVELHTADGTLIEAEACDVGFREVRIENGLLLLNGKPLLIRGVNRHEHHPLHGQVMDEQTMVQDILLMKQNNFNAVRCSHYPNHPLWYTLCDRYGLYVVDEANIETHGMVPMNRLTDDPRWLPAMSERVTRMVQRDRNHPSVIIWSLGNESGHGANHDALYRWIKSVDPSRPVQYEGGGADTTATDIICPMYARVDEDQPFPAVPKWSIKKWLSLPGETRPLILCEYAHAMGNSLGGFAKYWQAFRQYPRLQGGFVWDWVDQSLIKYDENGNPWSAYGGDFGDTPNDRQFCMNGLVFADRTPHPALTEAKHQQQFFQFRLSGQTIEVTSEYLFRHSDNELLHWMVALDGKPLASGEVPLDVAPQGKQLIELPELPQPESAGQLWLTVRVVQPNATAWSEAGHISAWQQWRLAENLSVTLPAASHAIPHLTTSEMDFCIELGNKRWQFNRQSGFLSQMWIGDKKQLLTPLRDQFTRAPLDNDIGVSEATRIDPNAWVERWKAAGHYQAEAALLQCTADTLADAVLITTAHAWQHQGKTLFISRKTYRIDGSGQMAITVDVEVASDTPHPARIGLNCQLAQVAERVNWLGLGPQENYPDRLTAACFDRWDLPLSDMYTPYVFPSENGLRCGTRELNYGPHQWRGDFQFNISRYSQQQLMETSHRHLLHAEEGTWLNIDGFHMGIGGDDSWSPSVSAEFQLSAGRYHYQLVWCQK

This data set has as its system β-galactosidase substrate with a cleavage cassette (decapeptide corresponding to an HIV protease cleavage site) inserted into its open reading frame [β-galactosidase: P00722].
As to “HIV-1 protease P1A (99 residues, HXB2) expressed from pMono”, the % Cleavage was 92%.

“HIV-1 protease N98A (99 residues, HXB2) expressed from pMono” yielded a % Cleavage of 68%.

“HIV-1 protease I3A (99 residues, HXB2) expressed from pMono” gave a % Cleavage of 0%.

“HIV-1 protease Q2A (99 residues, HXB2) expressed from pMono” yielded a % Cleavage of 96%.

“HIV-1 protease F99A (99 residues, HXB2) expressed from pMono”: the % Cleavage amounted to 0%.

“HIV-1 protease T96A (99 residues, HXB2) expressed from pMono” displayed a % Cleavage of 14%.

For the substance “HIV-1 protease D25A (99 residues, HXB2) expressed from pMono”, the % Cleavage came to 0%.

In the case of “HIV-1 protease L97A (99 residues, HXB2) expressed from pMono”, the % Cleavage stood at 0%.

For “HIV-1 protease T4A (99 residues, HXB2) expressed from pMono”, the % Cleavage was 96%.
